Laboratory results taken from the Human Domainome abundance scans (Beltran et al. 2025).
± gives the uncertainty stated by the source.

B1: Dynamin-binding protein, residues 146 to 206; numbered along this chain, Q6XZF7 (parent)
chain: SMGQARALMGLSAQLDEELDFREGDVITIIGVPEPGWFEGELEGRRGIFPEGFVELLGPLR
B2: CD2-associated protein, residues 109 to 169; numbered along this chain, Q9Y5K6 (parent)
chain: KKRQCKVLFEYIPQNEDELELKVGDIIDINEEVEEGWWSGTLNNKLGLFPSNFVKELEVTD

Variants of: B1
Experiment: abundance fitness (aPCA) (normalised: wild type 0, dead -1); higher = more abundant; growth selection in yeast, the domain comes from the species named
Details: Homo sapiens

Abundance fitness of substitutions, site by site:
R61: P 0.123 ± 0.22, N -0.054 ± 0.077, S -0.017 ± 0.068, V 0.019 ± 0.083, Y -0.148 ± 0.098, T -0.046 ± 0.072

Variants of: B2
Experiment: as above
Details: Homo sapiens

Abundance fitness: each site, then its substitutions
K22: I -0.308 ± 0.44, W -0.448 ± 0.23, L -0.952 ± 0.38, S -0.273 ± 0.15, R -0.244 ± 0.16, P -0.612 ± 0.43, H 0.219 ± 0.29, Q -0.406 ± 0.19, T 0.216 ± 0.24, E -0.66 ± 0.38, G -0.182 ± 0.27, V -0.388 ± 0.28, C -0.08 ± 0.39
R3: F -0.451 ± 0.1, M -0.228 ± 0.15, I -0.409 ± 0.1, D -0.283 ± 0.13, A -0.664 ± 0.14, T -0.109 ± 0.093, G -0.21 ± 0.065, Q -0.963 ± 0.31, N -0.388 ± 0.11, H -0.122 ± 0.099, P -0.572 ± 0.15, Y -0.58 ± 0.11, C -0.38 ± 0.069, S -0.364 ± 0.061, L -0.178 ± 0.086, E -0.401 ± 0.41, W -0.372 ± 0.26, K -0.33 ± 0.2, V -0.316 ± 0.076
E10: W -0.904 ± 0.31, L -0.841 ± 0.16, K -0.215 ± 0.12, M -0.579 ± 0.34, C -0.266 ± 0.23, N -0.064 ± 0.16, S 0.081 ± 0.076, T -0.265 ± 0.12, D 0.144 ± 0.14, G -0.153 ± 0.091, A -0.333 ± 0.15, Q -0.146 ± 0.15, R -0.126 ± 0.066
D25: P -0.401 ± 0.19, K -0.106 ± 0.3, L -0.856 ± 0.32, A -0.339 ± 0.15, M -0.771 ± 0.49, E -0.066 ± 0.19, Q -0.39 ± 0.34, C -0.649 ± 0.27, G -0.835 ± 0.24
D17: P -0.518 ± 0.21, R 0.076 ± 0.16, K -0.583 ± 0.45, H -0.343 ± 0.24, F -0.249 ± 0.47, Q -0.313 ± 0.36, G -0.092 ± 0.12, A -0.142 ± 0.1, V 0.051 ± 0.14, S 0.289 ± 0.14, T -0.298 ± 0.46, Y -0.192 ± 0.38, E 0.128 ± 0.11, M 0.001 ± 0.26, L -0.13 ± 0.13
C5: E -0.688 ± 0.32, S -0.353 ± 0.056, A 0.335 ± 0.062, L -0.445 ± 0.072, V 0.23 ± 0.056, N -0.596 ± 0.083, R -0.547 ± 0.11, Q -0.024 ± 0.1, D -0.626 ± 0.14, H -1.01 ± 0.21, K -0.632 ± 0.19, I -0.656 ± 0.11, Y -0.097 ± 0.07, P -0.945 ± 0.17, M -0.419 ± 0.13, W -0.743 ± 0.24, F -0.367 ± 0.073, G 0.235 ± 0.054
E16: L -0.403 ± 0.15, K -0.434 ± 0.24, R 0.017 ± 0.14, P -0.191 ± 0.16, D -0.203 ± 0.27, V -0.182 ± 0.1, Q -0.007 ± 0.27, G -0.303 ± 0.15, W -0.317 ± 0.44, M 0.147 ± 0.24, S 0.053 ± 0.14, I -0.552 ± 0.48
E18: D -0.738 ± 0.49, A -0.783 ± 0.27, P -0.986 ± 0.34, M -0.503 ± 0.2, K -0.411 ± 0.41, Q -0.395 ± 0.23, Y -0.582 ± 0.22, G -0.439 ± 0.21, T -0.838 ± 0.29, S -0.808 ± 0.2, R -0.792 ± 0.22, L -0.684 ± 0.19, V -0.989 ± 0.44
L8: H -0.401 ± 0.33, S -0.082 ± 0.12, P -0.596 ± 0.29, R -0.345 ± 0.17, E -0.088 ± 0.18, Q -0.437 ± 0.23, Y -0.288 ± 0.18, V -0.035 ± 0.11, W -0.49 ± 0.24, M 0.33 ± 0.22, G -0.133 ± 0.18, N -0.417 ± 0.32, D -0.267 ± 0.25, K -0.304 ± 0.14, I 0.118 ± 0.15, T -0.192 ± 0.14, A -0.34 ± 0.2
Q4: W -0.117 ± 0.25, V 0.118 ± 0.22, S 0.134 ± 0.22, L 0.271 ± 0.21, E -0.539 ± 0.45, R 0.209 ± 0.17, Y 0.503 ± 0.19
G24: A -0.783 ± 0.28, W -0.764 ± 0.27, P -0.838 ± 0.46, R -0.735 ± 0.25, Y -0.56 ± 0.4, F -0.57 ± 0.32, D -0.252 ± 0.25, I -0.226 ± 0.22, V -0.615 ± 0.26, E -0.227 ± 0.23, S -0.611 ± 0.17, L -0.781 ± 0.22, T -0.559 ± 0.27
V23: K 0.117 ± 0.19, I -0.143 ± 0.24, H -0.677 ± 0.38, G -0.458 ± 0.2, A -0.595 ± 0.44, S -0.414 ± 0.21, F -0.687 ± 0.33, M -0.34 ± 0.17, P -0.08 ± 0.28, T -0.144 ± 0.18, R -0.092 ± 0.14, L -0.369 ± 0.2
